Reference: the DeepSol protein solubility set

Assay: soluble on expression in E. coli; label from the status in PepcDB or PDB records
For “MHIAILGCTSQIAKDLIRSIYVYSQHDLILFGRTPQQTQSWLAENGITSRCSVNQYEEYPNIDHDVVINFVGIGDPSKAAAMGGSIFDITLHYDELVLNELKKYPDRRYLFLSSGAAYGSSFLEPADADTPSTININNLLPQEYYSVAKLHAECRHRSLKEYAIVDLRVFNVFSRTQDLEARFFITDIVRSIHSGTELITSSDMIYRDFMHPKDFYQLVERVLNAPPMNISLDCYSRQPVDKTTLLDEMKKTFGLSYRVKESNMSINATGIKPCYYSKNKRAAEFGYLPEYSSLETIIEETNAILGLQKTVLEHHHHHH”, the “soluble on expression in E. coli” value was “soluble”.
For “MGSDKIHHHHHHMEKVIYIVWRDPSTKPETFAHDLRTKLAQQLLQLGARGVQINVQDEDVAPAAALRQVNTLPQMDGLVSVWVDSAITSLRRPFDDAVLAATGRMAGYLVTESQPIRNTRHPARAGERTPGFSQLAFLKRPPRLTHEAWLDTWHNRHTQVAIDTQDTFLYVQNVVVRALTYGAPPLDAVVEEGFPEAAMTDPQAFFDAPGDEAKYQRNLAAMMESCQRFIDFDKIDVVASSQYIVRPPAA”, the “soluble on expression in E. coli” value was “not soluble”.
For “MGSDKIHHHHHHMLIEEIMKRNVVTIHEQTTIKEAYQTMILEKFRHLPVITKSKDVIGIVTDQDIRDASPSIFHQDEHQEDLQKPVSSIMTKDVITVHPLNSVAETARLLYENRISCLPVTEGEQLVGIVTDTDVLHTLVELMGAHQPSSQIYVRVENKAGQLADVAAIMKQRQMNIASVLVYPHREDERYKILAFRIQSMDPRGTISDLQSKGYHVLWPNIPGIAT”, the “soluble on expression in E. coli” value was “not soluble”.
For “GMHVYESDVSWIDDRRTEVSVGDHRIEVDSPPEFGGPEGQLYPETLFPSVLASCLLTTFLEFKDRMGINLKSWNSHVTAELGPSPEKGFKFHRIKIHVKIGVNDEDKEKIPRAMQLAEKYCFISRAIRNNVEEIVDYEFV”, the “soluble on expression in E. coli” value was “soluble”.
For “MAVELNQLRDQIDEVDKQMVELLARRLALVEQVGQVKSRYGLPIYAPDREAAMLASRRAEAESKGVPPQLIEDILRRTMRESYASEKDSGFKCLNPELRSVVIVGGNGQLGRLFGRMFKLSGYQVKVLGSQDWDKADELLSDAGLVVVTVPIHLTLGVIEKLRQLPDDCILCDLTSIKAKPLAAMLQVHKGPVVGLHPMFGPDVPSLAKQVIVYCDGRGNEHYQWLLQQFAIWGASLCQIDADEHDRGMTLIQALRHFTSFAYGLHLTKENPNLAQLLKLSSPIYRLELAMVGRLFGQDPHLYGDIILSSPENIEMIQRFHRCLSDAVELVSAGDKASFVAQFERVSQWFGDYSQQFMHESQNLLKQANDAIHRG”, the “soluble on expression in E. coli” value was “not soluble”.
In the case of “RVAHLLKKIHNSRPLLSMLKRMEMEPITPEIMLNKINASLSREVLTHHIVRKSLTYLEEHIPSLDSRFFTVVHGDVNHNNWLLSDRDELFLVDWEGAMIADPAIDIGMLLYNYVPQQQWSEWLETYGVQESLNLNKRMKWY”, the “soluble on expression in E. coli” value is reported as “not soluble”.
With “GDYTTLTFRVSTHIEEAAPTSCPAEHPHTVAQGDYLIVAKSNRMSTGNDELGSILMRAFVNAIGELDRLPSHIILYNTGVLLAVEGTDTAETLAELNKKHGIPIIVCGTCADYYEVKDKLRIGTISNMYRIMQLQVATRHIIYP” the “soluble on expression in E. coli” value was “not soluble”.
With “MGSDKIHHHHHHMKTVRIETFGCKVNQYESEYMAEQLEKAGYVVLPDGNAAYYIVNSCAVTKEVEKKVKRLIKSIRNRNKNAKIILTGCFAQLSPDEAKNLPVDMVLGIDEKKHIVDHINSLNGKQQVVVSEPGRPVYEKVKGSFEDRTRSYIKVEDGCDNTCTYCAIRLARGTRIRSKPLEIFKEEFAEMVMKGYKEIVITGVNLGKYGKDMGSSLAELLKVIEKVPGDYRVRLSSINVEDVNDEIVKAFKRNPRLCPHLHISVQSGSDDVLKRMGRKYKISDFMRVVDKLRSIDPDFSITTDIIVGFPGETDADFQRTLELVEKVEFSRVHIFRFSPRPGTPASRMEGGVPESKKKERLDVLKEKAKDVSIRYRKRIIGKERKVLAEWYVMKGVLSGYDEYYVKHEFVGNRVGEFHSVRVKSLSEEGVISCRADMVEGKVPARG” the “soluble on expression in E. coli” value was “not soluble”.
In the case of “MGSDKIHHHHHHVELHQLKDLLTEKLQATSLIHATISAPRLKSNDLRRIKVKPILLRDTYAIQLEFQHERIIKHENLSIEEFIVRMDQFFDEFRQFLFRFETEEVQFQLSKKMKVSIKTTVKEPIQAELSHNRKKSHLLEDGVPVPFLIRLGVMTEEGQVKRQKYDKFKQINRFLEFVEDSIAVLPKGRTLRILDFGCGKSYLTFALYHYLKIVKGFDLNVTGLDLKKEVIEECAAIAADLGYDDLSFRVGDVHDYDQDTEVDLMVTLHACDVATDVALARAVDWNASVILSVPCCQKELNRQLDCSPLDVMLQHGLIQEKFASLATDSIRAELLTLVGYETQLLEFIDLENTPKNILIRAYKNPKRPTEEKIDRYIAFRELLHAKPYLERELSGRLGQISSKLVQ”, the “soluble on expression in E. coli” value is reported as “not soluble”.
For “MGSDKIHHHHHHMNKGVPLKTRAEVNAFNGSKMLKVIGLDEFVSNGICDNRHCLLLPNYNPNQRELLSLDWGAVAIQCGGIPSNLTIPVISKLEHPEVISTGDVIVLNENRVDILYRRKSTANLLFVTERCNHQCIMCSQPPKVLDDGWHFEECHQLLELIDRDIPVLGISGGEPTLQRDGFLKLLEHAKKALPSTQLHILTNGSAFEEYLYVEQIIQLGHQQIVWGIPIYGSTPQQHDYHTQVLGSFNKTMHGLYNLGHVGAQIELRVVLTRPIIENIVELSEFIARNLPFVSTVALMGLEPTGFARTNYEAVWCDLNDYQEELLEGTHVLLSSGLDTVLYNIPRCHVPKSLRSIAVQSISDWKNSTRKECEYCEEQNLCCGFFKSHTQRFSEQNVKPIQLERRSENVVRT”, the “soluble on expression in E. coli” value was “not soluble”.
With “MLLALKGIRKVYRMGEVAFSALKGVDLEVEEGEMLAIMGPSGSGKSTLLHILGLLDRPTEGEYVLMDRPTSRLAEDERAFLRNRFLGFVFQAFFLLPRLSALENVEVPLAYAGVPPGTRRRRALELLERVGLLEKANNLPNQLSGGQRQRVAIARALALNPPLLLADEPTGALDTRTGEEILALFQELNREGTTVILVTHEPHVAEKTNRIVRVLDGEIVADERRHHG” the “soluble on expression in E. coli” value was “soluble”.
With “MGSDKIHHHHHHMKKTERINDMLIFLNNKRYFNLKDLMVRYDISKSTALRDIQSLEEIGVPIYSELGRNGSYKIIENSVLSPIYFSVDEMYALYFSILTLNGYKTKPFNIESIALENKFKHVLPDNVRKNIAIMERTLSFEVTNHSNFSPFLKEILQGIFAERVYHLTYLKKDVEKALIAQFIRIESKFGQWYAKIFNFETNNVQIIRCDKILSIVETSNTKPKNLEELLNYLATFHRKPDAIDFIVIVNQRGKDIFDKENYPSMRIQKENEHYIITGYFNKQEVDLSRTIF” the “soluble on expression in E. coli” value was “not soluble”.
For “LWHASIAIVGSRQPSAGGLDHSYGFAQALAARGLGIISGMAAGIDATAHEAALSIPSGHTVAVLGTGPDVPYPARHKKLHARITTDGAVISEYPPGTQPRAAHFPQRNRIIAGLALGTLVVEAGARSGALITARLAAEAGRAVFAVPGSLHNPMTRGCHQLIRQGATLVQDIDQILED”, the “soluble on expression in E. coli” value was “not soluble”.
In the case of “MNEINESYDTDSVREFTVSDADAGPYALAEGPDGALWFTLVHRGAVARRDPDDGRVTVHPVGDGPTVIAPGPDGALWFTEYRAHRIGRITPEGHYASFAPLTPEGGPFGITAGPDGAMWFTLSSADRVGRVTMDGEVTEHPAPGAFPSALTAGPDGALWCTLNQGNAIGRLTPDGHGTAYPLPTPGAAPVGIAAGPDGALWFTEIGAGRIGRITVTGDLTEYPLSDPAARPHAVTAGPNGALWFTEWGSGRVGRITVDGRVTSYPLSRTDCEPHGIAVHDGALWCALETGSLARIQVPA”, the “soluble on expression in E. coli” value is reported as “soluble”.
With “MMRIGIIARFDVAEAVEIAERVASFLLNRGVEITVDLKLTEELPQLREYGEDIRNMDADMILTIGGDGTILRTRSLIEDKEIPILGINMGTVGFLTEVDPENVFSALEAVLRGEYAVEKRTLLSVYHNDELPSALNEVVLMTRRPAKMLHIEISVDDEVVEELRADGIIIATPSGSTAYSMSAGGPIVDPRVEAFLIVPICPFKLSARPLVVSNKSVIRVKLLRKGKKAIAVIDGQYEEEINHMDEVIFRKSERKAHFVRLSKDFYRKVREKLIEGGIDSIKG” the “soluble on expression in E. coli” value was “soluble”.
For “MIYPLPAILVSCGKDESEYNIITVAWTGTICTNPPMCYISVRPERHSYDIIKKNMEFVINLTTKDMAFPTDWCGVRSGRNYRKFEEMKLTPGRCTVVSAPLIEESPLCIECRVKEIVSLGSHDMFIADVVNVRADDRNLNPETGKFELAEANPLVYVHGGYYDLGEKIGKFGWSVEKKK”, the “soluble on expression in E. coli” value was “not soluble”.
For “PASQTAANNLGGALNFSVENRTVKRIKFRYNVAKPITTEGLSKLSKGLGEAFLDNTTKAKLAELADPLNARYTGKKPDEVIQAQLDGLEELFADIPPPKDNDKQYKALRDLKRAAVEHRASANKHSVMDNARFETSKTNLSGLSSESILTKIMSSVRDASAPGNATRVAEFMRQDPKLRAMLKEMEGSIGTLARVRLEPKDSLVDKIDEGSLNGTMTQSDLSSMLEDRNEMRIKRLVVFHTATQAENFTSPTPLVSYNSGANVSVTKTLGRINFVYGADQDKPIGYTFDGELSRPSASLKEAAGDLKKEGFELKS”, the “soluble on expression in E. coli” value was “not soluble”.
With “ELIEPEPRPLIITPSVIELPILRRRDIYMEVANVSIGRAADALARHFDVFVQLPLPNVNIFEVSELHMALRDLASHDNVSGVCQGFCGEGIAGEALVILSDSSVSDLKKLMKVPADSEELEELELLMDISNILVGSFLNGLGEQSEVRFFQSPPVLLGQHISIDSIIESTTGAFKRTMTFEVSYNIEGTSIRCDLLFMFVDESLPLLDNKLAYLMEEF” the “soluble on expression in E. coli” value was “not soluble”.
For “MINIVIPMAGAGSRFAQAGYKKPKPFIDVLGRPMICHVLDNLNMPDARFILLTRKEHFENEQETVNWIKSKYNVEFVLIDNLTEGAACTVLHAHKLIDNNTPLLIANSDQIVDMNIAEFINDSENRNLDGSVLCFKDHDTKWSYAKIDGEGLITEIREKVVISEFATVGIYYFAKGGFFVKNAIDMIIRNERVKNEFYVAPVYNFGIQEGLKFGIFNININQMHGIGTPTDLNVYIDLVQRNKLEHHHHHH”, the “soluble on expression in E. coli” value was “soluble”.
For “MNDKKLLVAYDISSNRRRRKVARILEQCGIRINKSVFICSLRELTMDKLVEAVTSQTAKRDKVFFLPLCQHCYTAAWMSGHPTLPKSRRKRKSIVV”, the “soluble on expression in E. coli” value was “not soluble”.
For “QGTRVTLKVDKEYQQALSRGHSAGHLAYLALNKVLAASYWRKDADRKDPHGNYDFNSYAQEASFVTPDKCLDTYRLGKTLRKRGLNSAEMLSDLEKIEGQVNAQLKFWLERDAAIIMDCHGDNLTDSRYWKCDLGEGELAVIPCGGTHAEHLSDFGSIHVKLVEMDSQTIEMHTDVIACFSN”, the “soluble on expression in E. coli” value was “not soluble”.
In the case of “MVESQFEQDSQISTDSPLVLVKAAEKTSAIQQLLDYISNYQMISSNSIPIKSMDKIMMLKLDDIILVDVNQTTLKIYTLTGVFTTTETLVHFANRLNKSNFIQISKHALINLDHLESLSDSFSGNMMAKLSSNIKSSVSRKYVKGLMTQLGI”, the “soluble on expression in E. coli” value is reported as “not soluble”.
For “MAHHHHHHMEDVGGKANCQIEPERKEAVIDTSNWPLLLKNYDKLNVRSSHFTPLPMGNSPYSRNLEEYLKYGIINLDKPSNPSSHEVVSWIRKILRCEKTGHSGTLDPKVTGVLLVCLNRATRLVKSQQESGKEYVCVCKFHSKPKSLEEVKLVLNNFHGAIFQRPPLICAVKRQLRVRTIYDSKLLDFDDANNVCVFWVKCQAGTYIRTLCEHIGLLLGVGAHMQELRRVKSGNMTEYDNMCTLHDILDAQHVYDTTGDESYLRKIITPLEKLLINFPRIVIKDSAVNAICYGAKLTIPGVLRFDNNIDVNSEVVLMTTKGEAVALAIAQMTSSVIATVDHGVVSLTKRVIMDRDTYDVKWGYGTRSMEKKKLILAGLLDKYGKPNEKTPLSWIKSEGYVPKLVGDTAIYTLNTDDGNNNEVPENGKNVVGENNNPVGGSSAFNLSEGENKKKKDGEGAEENDNNAGEQSDSGVVKKKRKKN”, the “soluble on expression in E. coli” value was “not soluble”.
